The assay has as its target 移除了糖基化位点(Asn-38)的H7 HA(A/鸡/意大利/99假病毒) (influenza A virus A/chicken/Italy/99 (H7)). Briefly: cell-based or functional assay.

As to CR6261 (antibody), the H7假病毒中和 IC50 was more than 50 µg/mL.

In the case of F10 (antibody), the H7假病毒中和 IC50 is more than 50 µg/mL.

(Values after patent CN107417789A.)
